Assay results: patent US6548475

Molecular target: molecules present at the cell surface of both cerebellar neurons and PC12 cells
Assay: cell-based or functional assay

## purified recombinant human KAL protein (isolated from transfected CHO cells, clone CHKAL2-3/dll), coated on plastic (from UniProt P23352 25-680)
  percentage of adherent cells (mouse cerebellar neurons on KAL-coated surface, 90 min): 80%
